Experimental data from patent US20170137467A1 (CHROMOTEK, published 2017).
Square brackets hold non-standard residues; d marks the D form. GABA = NCCCC(=O)O

What was measured:
Test in all cases: peptide library pulldown on immobilized Nb, LC-MS of supernatant; ratio vs GFP-Nb control (1 = not captured, 0 = captured)
[1] = target: T1, BC2T S8F library peptide (human)
T1 construct: also called BC2TS8X: F
T1 peptide: Ac-PDRKAAVFHWQQ-NH2
In short: (§1)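 Unbound peptide left in supernatant after 1 h pulldown in PBS/0.01% CHAPS measured by reversed-phase LC-MS (8–30% eluent B gradient, 20 min).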

[2] = target: T2, BC2T Q12G library peptide (human)
T2 peptide: Ac-PDRKAAVSHWQG-NH2
In short: as §1

[3] = target: T3, BC2T Q12C* library peptide (human, SMILES …)
T3 construct: also called C(Abu)
T3 peptide: Ac-PDRKAAVSHWQ[GABA]-NH2
In short: as §1

[4] = target: T4, BC2T Q12Y library peptide (human)
T4 peptide: Ac-PDRKAAVSHWQY-NH2
In short: as §1

[5] = target: T5, BC2T W10(I/L) library peptide, version 1 (N-terminal acetyl, C-terminal amide)
T5 construct: Ile and Leu versions are isobaric; two versions resolved but not assigned; also called BC2TW10X: I/L1
In short: as §1

[6] = target: T6, BC2T S8(I/L) library peptide, version 2 (N-terminal acetyl, C-terminal amide)
T6 construct: Ile and Leu versions are isobaric; two versions resolved but not assigned; also called BC2TS8X: I/L2
In short: as §1

[7] = target: T7, BC2T H9(I/L) library peptide, version 2 (N-terminal acetyl, C-terminal amide)
T7 construct: Ile and Leu versions are isobaric; two versions resolved but not assigned; also called I/L2
In short: as §1

[8] = target: T8, BC2T W10N library peptide (human)
T8 construct: also called BC2TW10X: N
T8 peptide: Ac-PDRKAAVSHNQQ-NH2
In short: as §1

[9] = target: T9, BC2T Q11(I/L) library peptide, version 1 (N-terminal acetyl, C-terminal amide)
T9 construct: Ile and Leu versions are isobaric; two versions resolved but not assigned; also called I/L1
In short: as §1

[10] = target: T10, BC2T Q11P library peptide (human)
T10 peptide: Ac-PDRKAAVSHWPQ-NH2
In short: as §1

[11] = target: T11, BC2T S8(I/L) library peptide, version 1 (N-terminal acetyl, C-terminal amide)
T11 construct: Ile and Leu versions are isobaric; two versions resolved but not assigned; also called BC2TS8X: I/L1
In short: as §1

[12] = target: T12, BC2T W10(I/L) library peptide, version 2 (N-terminal acetyl, C-terminal amide)
T12 construct: Ile and Leu versions are isobaric; two versions resolved but not assigned; also called BC2TW10X: I/L2
In short: as §1

[13] = target: T13, BC2T Q12V library peptide (human)
T13 peptide: Ac-PDRKAAVSHWQV-NH2
In short: as §1

[14] = target: T14, BC2T W10C* library peptide (human, SMILES …)
T14 construct: also called BC2TW10X: C*; C(Abu)
T14 peptide: Ac-PDRKAAVSH[GABA]QQ-NH2
In short: as §1

[15] = target: T15, BC2T S8M library peptide (human)
T15 construct: also called BC2TS8X: M
T15 peptide: Ac-PDRKAAVMHWQQ-NH2
In short: as §1

[16] = target: T16, BC2T W10V library peptide (human)
T16 construct: also called BC2TW10X: V
T16 peptide: Ac-PDRKAAVSHVQQ-NH2
In short: as §1

[17] = target: T17, BC2T Q12H library peptide (human)
T17 peptide: Ac-PDRKAAVSHWQH-NH2
In short: as §1

[18] = target: T18, BC2T Q11Y library peptide (human)
T18 peptide: Ac-PDRKAAVSHWYQ-NH2
In short: as §1

ratio [1]: 0.9
ratio [2]: 0.2
ratio [3]: 0.1
ratio [4]: 0.2
ratio [5]: 1
ratio [6]: 0.9
ratio [7]: 0.2
ratio [8]: 1.2
ratio [9]: 0.2
ratio [10]: 0.9
ratio [11]: 0.5
ratio [12]: 1
ratio [13]: 0.1
ratio [14]: 1.1
ratio [15]: 1
ratio [16]: 1
ratio [17]: 0.1
ratio [18]: 0.1
B1: BC2-Nb(R106E) (VHH)
VHH: QVQLVESGGGLVQPGGSLTLSCTASGFTLDHYDIGWFRQAPGKEREGVSCINNSDDDTYYADSVKGRFTIFMDNAKDTVYLQMNSLKPEDTAIYYCAEARGCKRGEYEYDFWGQGTQVTVSS
notes: Headlock mutant; immobilized on beads in the library pulldown
